Results as given in publication PMC2783852 (Archives of biochemistry and biophysics, 2009).

Biological target: the molecule itself
Assay: SEC

B1: recombinant human apomanganese superoxide dismutase (enzyme, UniProt P04179 25-222, looked up)
chain: KHSLPDLPYDYGALEPHINAQIMQLHHSKHHAAYVNNLNVTEEKYQEALAKGDVTAQIALQPALKFNGGGHINHSIFWTNLSPNGGGEPKGELLEAIKRDFGSFDKFKEKLTAASVGVQGSGWGWLGFNKERGHLQIAACPNQDPLQGTTGLIPLLGIDVWEHAYYLQYKNVRPDYLKAIWNVINWENVTERYMACKK
In the case of B1, the “stoichiometry N” value is reported as 4.
